Measured values from patent publication US20120010178A1, “METHODS AND COMPOUNDS FOR TREATMENT OF NEURODEGENERATIVE DISORDERS” (PRESIDENT AND FELLOWS OF HARVARD COLLEGE, priority 2008, published 2012).

Tested on: SMN
Assay: SMN levels in mouse (ES-cell derived) motor neurons
Assay type: cell-based
Settings: mouse motor neurons
Description: Mouse HB9-GFP derived SMN deficient motor neuron cells were incubated for 2 days with compounds from libraries and collections.
Motor neurons were produced from mouse ES-cells expressing cherry fluorescent protein (CFP) under the control of the motor neuron-selective Hb9 promoter, as previously described (Wichterle et al., 2002).
GFP expressing motor neurons were derived from mouse ES cells as described below. After growing for approximately 1 week, motor neurons were treated with allsterpaullone. Two days after treatment with allsterpaullone, cells were fixed and stained with SMN antibody or GFP antibody.
mES cells were differentiated into motor neurons according to methods adapted from Wichterle et. al., Cell (2002), 110:385-397. Briefly, mES cells were grown to 70-80% confluence in 10-cm plates (Falcon) in ES cell medium. To form embryoid bodies, cells were washed once with PBS to eliminate mES medium and then incubated with 1 ml of 0.25% trypsin (GIBCO) for 5-10 min at 21-25° C. (RT). Cells were then resuspended in 10 ml of DM1 medium (DMEM-F12, GIBCO), 10% knockout serum (GIBCO), penicillin, streptomycin, glutamine (GIBCO) and 2-mercaptoethanol (GIBCO), counted and plated at a concentration of 200,000 cells per ml in Petri dishes (Falcon). […] The cells were counted and plated on poly-ornithine coated 96-well plates (VWR).

B1: BMP4: bone morphogenetic protein 4, BMP/TGFβ ligand (protein, UniProt P12644 293-408, looked up)
Bone morphogenetic protein 4: SPKHHSQRARKKNKNCRRHSLYVDFSDVGWNDWIVAPPGYQAFYCHGDCPFPLADHLNSTNHAIVQTLVNSVNSSIPKACCVPTELSAISMLYLDEYDKVVLKNYQEMVVEGCGCR
  SMN levels in motor neurons (in words): increase SMN levels
